Consider one molecule from patent publication US20140044644A1 (UNIVERSITY OF ZURICH, published 2014).

The target in the assay is ankB in mouse brain homogenate (mouse, UniProt Q8C8R3 1-3898, limits assumed). Put plainly: co-immunoprecipitation (ankG immunoprecipitate) from mouse brains, Western blot. An excerpt: FIG. 6: AnkG interacts directly with APP in the brain [0020] (a) AnkG and APP immunoprecipitates from human frontal cortex were immunoblotted with specific antibodies against ankG, APP and ankB. Immunoprecipitates with non-immune IgG served as a negative control. Note that APP co-immunoprecipitated with ankG and vice versa. Human brain homogenate (C) was used as positive control. (b) AnkG immunoprecipitates were obtained from arcAbeta (TG), non-transgenic (NTG) littermates and APP deficient (−/−) mouse brains. Note that APP, but not ankB, co-immunoprecipitated with ankG. Mouse brain homogenate (C) was used as positive control. (c) Primary rat hippocampal cultures were stained with antibodies against the C-terminal portion of APP (green) and with antibodies against ankG (red). Note the presence of both ankG and APP in the AIS. Scale bar=10 μm (upper panels) and Scale bar=30 μm (lower panels). […] AnkG binding to BSA-coated wells (2 mg/ml) served as negative control. Mean values (OD₄₅₀)±SEM are shown (n=6). (e) AnkG and APP immunoprecipitates from human AD hippocampus were immunoblotted with specific antibodies against APP and Caspr and L1. Immunoprecipitates with non-immune IgG served as a negative control. As already shown in (a) APP co-immunoprecipitated with ankG. Note the absence of Caspr and L1 from the immunoprecipitates. AD hippocampus homogenate (+) was used as positive control. […]
Sequence of ankB in mouse brain homogenate (Q8C8R3 whole entry): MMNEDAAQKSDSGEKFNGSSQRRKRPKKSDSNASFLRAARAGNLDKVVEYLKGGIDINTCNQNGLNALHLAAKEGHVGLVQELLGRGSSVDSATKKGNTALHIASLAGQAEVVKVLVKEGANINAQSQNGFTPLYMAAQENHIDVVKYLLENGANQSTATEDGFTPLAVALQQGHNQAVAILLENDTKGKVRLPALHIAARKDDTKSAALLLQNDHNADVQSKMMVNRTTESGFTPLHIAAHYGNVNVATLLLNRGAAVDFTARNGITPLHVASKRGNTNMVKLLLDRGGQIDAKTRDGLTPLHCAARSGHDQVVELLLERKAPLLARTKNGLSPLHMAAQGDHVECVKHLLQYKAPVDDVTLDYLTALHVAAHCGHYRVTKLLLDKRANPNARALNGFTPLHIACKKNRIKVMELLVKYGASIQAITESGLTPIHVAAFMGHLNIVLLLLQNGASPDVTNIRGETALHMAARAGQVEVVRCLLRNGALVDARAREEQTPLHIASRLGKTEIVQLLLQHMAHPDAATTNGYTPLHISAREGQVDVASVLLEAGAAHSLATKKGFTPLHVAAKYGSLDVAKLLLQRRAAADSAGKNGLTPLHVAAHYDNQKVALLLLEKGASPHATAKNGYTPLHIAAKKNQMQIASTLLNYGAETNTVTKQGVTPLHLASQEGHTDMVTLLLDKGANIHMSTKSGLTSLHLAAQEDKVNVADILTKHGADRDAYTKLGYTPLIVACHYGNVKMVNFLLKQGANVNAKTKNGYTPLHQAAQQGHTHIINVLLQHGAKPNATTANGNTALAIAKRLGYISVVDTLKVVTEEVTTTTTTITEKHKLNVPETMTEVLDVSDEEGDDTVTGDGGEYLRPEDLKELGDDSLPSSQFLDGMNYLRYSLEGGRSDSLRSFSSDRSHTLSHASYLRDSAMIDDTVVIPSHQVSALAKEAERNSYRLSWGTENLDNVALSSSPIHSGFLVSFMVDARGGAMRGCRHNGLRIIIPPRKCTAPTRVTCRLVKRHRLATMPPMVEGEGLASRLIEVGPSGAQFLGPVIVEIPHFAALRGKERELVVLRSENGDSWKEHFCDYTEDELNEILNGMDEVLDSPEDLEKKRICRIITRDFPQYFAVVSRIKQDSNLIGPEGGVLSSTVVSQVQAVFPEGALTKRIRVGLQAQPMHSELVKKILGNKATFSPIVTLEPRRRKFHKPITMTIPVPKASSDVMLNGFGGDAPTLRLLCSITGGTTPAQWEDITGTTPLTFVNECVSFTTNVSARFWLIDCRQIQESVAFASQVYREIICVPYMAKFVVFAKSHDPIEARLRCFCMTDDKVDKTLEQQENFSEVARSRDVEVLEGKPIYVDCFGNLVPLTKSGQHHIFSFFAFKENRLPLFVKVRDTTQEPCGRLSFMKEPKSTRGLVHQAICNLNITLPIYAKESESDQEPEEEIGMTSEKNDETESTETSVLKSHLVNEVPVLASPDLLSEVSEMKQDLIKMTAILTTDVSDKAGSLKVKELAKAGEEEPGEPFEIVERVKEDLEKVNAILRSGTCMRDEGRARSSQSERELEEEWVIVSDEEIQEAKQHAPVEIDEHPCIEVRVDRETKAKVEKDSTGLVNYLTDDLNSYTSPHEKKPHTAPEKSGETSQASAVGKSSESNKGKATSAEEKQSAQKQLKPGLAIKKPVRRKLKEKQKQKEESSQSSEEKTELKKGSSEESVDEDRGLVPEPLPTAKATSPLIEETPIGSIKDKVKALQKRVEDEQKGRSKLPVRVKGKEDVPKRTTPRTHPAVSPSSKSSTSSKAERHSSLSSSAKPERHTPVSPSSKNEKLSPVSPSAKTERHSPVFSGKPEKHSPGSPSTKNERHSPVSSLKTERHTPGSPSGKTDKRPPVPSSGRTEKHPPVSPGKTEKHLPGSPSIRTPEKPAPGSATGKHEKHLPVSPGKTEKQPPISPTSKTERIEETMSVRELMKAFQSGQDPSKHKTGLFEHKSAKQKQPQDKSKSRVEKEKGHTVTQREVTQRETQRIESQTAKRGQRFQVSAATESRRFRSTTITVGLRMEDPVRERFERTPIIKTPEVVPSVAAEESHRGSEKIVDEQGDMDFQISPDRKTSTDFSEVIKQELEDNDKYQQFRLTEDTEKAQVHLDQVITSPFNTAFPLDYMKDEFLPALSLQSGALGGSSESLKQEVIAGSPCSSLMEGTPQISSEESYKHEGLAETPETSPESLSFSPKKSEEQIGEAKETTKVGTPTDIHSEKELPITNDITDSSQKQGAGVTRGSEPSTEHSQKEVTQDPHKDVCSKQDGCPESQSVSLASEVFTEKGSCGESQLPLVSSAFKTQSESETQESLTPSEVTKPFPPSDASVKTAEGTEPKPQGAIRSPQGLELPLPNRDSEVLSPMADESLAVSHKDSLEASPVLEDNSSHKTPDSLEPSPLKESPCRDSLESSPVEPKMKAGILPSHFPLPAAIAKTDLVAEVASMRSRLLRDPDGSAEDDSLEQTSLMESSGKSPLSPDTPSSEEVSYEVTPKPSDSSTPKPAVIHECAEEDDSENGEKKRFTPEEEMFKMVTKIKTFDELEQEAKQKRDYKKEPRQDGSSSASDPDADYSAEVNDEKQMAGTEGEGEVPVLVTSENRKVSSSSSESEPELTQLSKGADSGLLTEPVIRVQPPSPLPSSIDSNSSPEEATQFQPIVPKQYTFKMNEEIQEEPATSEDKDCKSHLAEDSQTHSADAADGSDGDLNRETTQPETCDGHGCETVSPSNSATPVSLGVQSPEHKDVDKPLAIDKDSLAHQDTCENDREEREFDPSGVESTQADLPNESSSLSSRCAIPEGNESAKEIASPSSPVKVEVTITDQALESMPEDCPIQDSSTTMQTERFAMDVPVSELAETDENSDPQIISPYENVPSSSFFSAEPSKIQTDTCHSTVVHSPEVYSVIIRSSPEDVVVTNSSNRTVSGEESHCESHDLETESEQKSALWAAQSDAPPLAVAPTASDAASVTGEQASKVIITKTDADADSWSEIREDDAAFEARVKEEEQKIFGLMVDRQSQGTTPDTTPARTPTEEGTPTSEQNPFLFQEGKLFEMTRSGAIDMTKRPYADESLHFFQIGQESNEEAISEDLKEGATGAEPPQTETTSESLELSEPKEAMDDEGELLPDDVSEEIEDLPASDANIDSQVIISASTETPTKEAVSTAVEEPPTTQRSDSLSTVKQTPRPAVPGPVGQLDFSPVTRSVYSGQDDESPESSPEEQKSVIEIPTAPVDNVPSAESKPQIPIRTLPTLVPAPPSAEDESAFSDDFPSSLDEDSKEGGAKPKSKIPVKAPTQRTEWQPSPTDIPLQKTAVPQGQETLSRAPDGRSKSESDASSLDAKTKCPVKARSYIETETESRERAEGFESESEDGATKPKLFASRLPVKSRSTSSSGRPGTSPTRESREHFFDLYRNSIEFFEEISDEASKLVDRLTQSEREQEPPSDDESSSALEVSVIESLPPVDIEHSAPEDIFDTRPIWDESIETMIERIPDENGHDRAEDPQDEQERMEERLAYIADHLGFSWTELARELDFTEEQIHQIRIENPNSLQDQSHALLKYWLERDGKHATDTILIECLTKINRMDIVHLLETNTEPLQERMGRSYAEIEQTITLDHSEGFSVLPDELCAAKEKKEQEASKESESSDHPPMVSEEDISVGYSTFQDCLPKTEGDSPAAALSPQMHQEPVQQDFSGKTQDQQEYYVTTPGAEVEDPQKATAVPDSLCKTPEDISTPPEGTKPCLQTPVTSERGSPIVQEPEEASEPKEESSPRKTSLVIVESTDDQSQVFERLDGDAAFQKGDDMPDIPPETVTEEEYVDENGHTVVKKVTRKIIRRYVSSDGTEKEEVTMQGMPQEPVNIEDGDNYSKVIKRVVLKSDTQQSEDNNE
On the technique in general: A western blot detects proteins with antibodies after separation by electrophoresis.

B1: ankG in mouse brain homogenate (other, UniProt G5E8K5 1-1961, looked up)
chain: MSEEPKEKPAKPAHRKRKGKKSDANASYLRAARAGHLEKALDYIKNGVDVNICNQNGLNALHLASKEGHVEVVSELLQREANVDAATKKGNTALHIASLAGQAEVVKVLVTNGANVNAQSQNGFTPLYMAAQENHLEVVRFLLDNGASQSLATEDGFTPLAVALQQGHDQVVSLLLENDTKGKVRLPALHIAARKDDTKAAALLLQNDTNADVESKSGFTPLHIAAHYGNINVATLLLNRAAAVDFTARNDITPLHVASKRGNANMVKLLLDRGAKIDAKTRDGLTPLHCGARSGHEQVVEMLLDRSAPILSKTKNGLSPLHMATQGDHLNCVQLLLQHNVPVDDVTNDYLTALHVAAHCGHYKVAKVLLDKKASPNAKALNGFTPLHIACKKNRIRVMELLLKHGASIQAVTESGLTPIHVAAFMGHVNIVSQLMHHGASPNTTNVRGETALHMAARSGQAEVVRYLVQDGAQVEAKAKDDQTPLHISARLGKADIVQQLLQQGASPNAATTSGYTPLHLAAREGHEDVAAFLLDHGASLSITTKKGFTPLHVAAKYGKLEVASLLLQKSASPDAAGKSGLTPLHVAAHYDNQKVALLLLDQGASPHAAAKNGYTPLHIAAKKNQMDIATSLLEYGADANAVTRQGIASVHLAAQEGHVDMVSLLLSRNANVNLSNKSGLTPLHLAAQEDRVNVAEVLVNQGAHVDAQTKMGYTPLHVGCHYGNIKIVNFLLQHSAKVNAKTKNGYTALHQAAQQGHTHIINVLLQNNASPNELTVNGNTALAIARRLGYISVVDTLKVVTEEIMTTTTITEKHKMNVPETMNEVLDMSDDEVRKASAPEKLSDGEYISDGEEGDKCTWFKIPKVQEVLVKSEDAITGDTDKYLGPQDLKELGDDSLPAEGYVGFSLGARSASLRSFSSDRSYTLNRSSYARDSMMIEELLVPSKEQHLTFTREFDSDSLRHYSWAADTLDNVNLVSSPVHSGFLVSFMVDARGGSMRGSRHHGMRIIIPPRKCTAPTRITCRLVKRHKLANPPPMVEGEGLASRLVEMGPAGAQFLGPVIVEIPHFGSMRGKERELIVLRSENGETWKEHQFDSKNEDLAELLNGMDEELDSPEELGTKRICRIITKDFPQYFAVVSRIKQESNQIGPEGGILSSTTVPLVQASFPEGALTKRIRVGLQAQPVPEETVKKILGNKATFSPIVTVEPRRRKFHKPITMTIPVPPPSGEGVSNGYKGDATPNLRLLCSITGGTSPAQWEDITGTTPLTFIKDCVSFTTNVSARFWLADCHQVLETVGLASQLYRELICVPYMAKFVVFAKTNDPVESSLRCFCMTDDRVDKTLEQQENFEEVARSKDIEVLEGKPIYVDCYGNLAPLTKGGQQLVFNFYSFKENRLPFSIKIRDTSQEPCGRLSFLKEPKTTKGLPQTAVCNLNITLPAHKKAEKADRRQSFASLALRKRYSYLTEPSMSPQSPCERTDIRMAIVADHLGLSWTELARELNFSVDEINQIRVENPNSLISQSFMLLKKWVTRDGKNATTDALTSVLTKINRIDIVTLLEGPIFDYGNISGTRSFADENNVFHDPVDGHPSFQVELETPMGLYCTPPNPFQQDDHFSDISSIESPFRTPSRLSDGLVPSQGNIEHPTGGPPVVTAEDTSLEDSKMDDSVTVTDPADPLDVDESQLKDLCQSECAQCWASVPGIPNDGRQAEPLRPQTRKVGMSSEQQEKGKSGPDEEVTEDKVKSLFEDIQLEEVEAEEMTEDQGQAMLNRVQRAELAMSSLAGWQNETPSGSLESPAQARRLTGGLLDRLDDSSDQARDSITSYLTGEPGKIEANGNHTAEVIPEAKAKPYFPESQNDIGKQSIKENLKPKTHGCGRTEEPVSPLTAYQKSLEETSKLVIEDAPKPCVPVGMKKMTRTTADGKARLNLQEEEGSTRSEPKQGEGYKVKTKKEIRNVEKKTH
notes: also called ankG (arcAbeta, non-transgenic and APP deficient mouse brains)
With B1, the binding result was “no binding”.
